Our source for the binding result and Kd values is paper PMC5766207.

For data set [1], the target named is T1, σJSnoaL_2 (Mycobacterium tuberculosis, UniProt L0TCG5 162-312).
T1 sequence: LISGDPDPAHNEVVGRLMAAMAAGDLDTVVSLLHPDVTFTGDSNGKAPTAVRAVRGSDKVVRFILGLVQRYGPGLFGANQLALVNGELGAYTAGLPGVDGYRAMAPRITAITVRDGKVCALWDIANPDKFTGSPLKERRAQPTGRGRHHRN
The data set can be described thus: EMSA.

The target in data set [2] is T2, σJ (Mycobacterium tuberculosis, UniProt L0TCG5 1-312).
T2 sequence: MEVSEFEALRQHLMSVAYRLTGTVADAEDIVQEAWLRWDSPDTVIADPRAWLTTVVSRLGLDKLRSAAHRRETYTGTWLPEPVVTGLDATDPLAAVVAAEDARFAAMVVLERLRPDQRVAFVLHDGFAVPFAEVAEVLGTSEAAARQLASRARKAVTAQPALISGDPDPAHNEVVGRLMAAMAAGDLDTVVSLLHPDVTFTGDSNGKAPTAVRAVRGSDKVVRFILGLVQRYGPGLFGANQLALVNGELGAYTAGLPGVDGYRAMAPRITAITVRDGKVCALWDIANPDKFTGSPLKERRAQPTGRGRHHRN
The data set can be described thus: EMSA.

B1: wt-sigIp (dsDNA)
DNA 1: GCTGTCACATTCGGCGGGGCTGTCTCGTCCTTGA
DNA 2: TCAAGGACGAGACAGCCCCGCCGAATGTGACAGC
Regarding B1, the binding result in data set [1] was “no binding”. Also, in data set [2], the Kd worked out at 4.96 ± 0.94 µM.
